First the molecules themselves.
B1: Hairpin Ribozyme (parent)
chain: GUCCUCUUUCACGUGCGCGUGAAAGAGAGAAGUGAACCAGAGAAACACACGUUGUGGUAUAUUACCUGGUA

The variants in this data set derive from B1. Kind of data set: self-cleavage, relative activity (ratio to wild type); higher = more cleavage; co-transcriptional.
Consider G15U A24U, for which the self-cleavage is 0.957.
Under G17A A23C stands 0.987.
The same measure for G17A A23U: 0.892; for G15U A22U: 0.996.
Under C16G C37A stands 0.244.
Regarding C16U A71C, the self-cleavage was determined as 1.41.
Under G17A A22C stands 0.866.
The same measure for G17A A22G: 1.12; for G17A A22U: 0.892; for C16G C65A: 0.976.
C16G C65U: the self-cleavage worked out at 0.167.
The same measure for C16G G56A: 0.073.
As for G17A G25U, the self-cleavage is 0.494.
Under C16A C65G stands 0.255; under C16A C65A, 0.845.
The same measure for G15C G69U: 0.276; for C16G A47C: 0.293; for G17C G19U: 0.502.
Under G15U G29C stands 0.125; under G15U C50G, 0.353; under G17A U62G, 0.0926.
With G17A U62C, the self-cleavage is 0.166.
The same measure for C16G A39G: 0.288; for C16G A39U: 0.355; for G15C C48U: 0.112.
The same measure for G15U A36G: 1.25; for G15U G17U: 1.06; for C16U U67A: 0.325.
Take G15U A26G: the self-cleavage came to 0.895.
Under G17A G19U stands 1.02; under G15C G57U, 0.282; under C16A U67A, 0.246.
C16A U67C: the self-cleavage came to 0.24.
Under C16U G17A stands 1.19; under G17C A23U, 0.572.
The same measure for G17C A23C: 0.603; for C16G A71U: 0.552.
G17A A39U: the self-cleavage came to 0.44.
The same measure for C16A G27A: 0.36.
For the variant G15C U60C, the self-cleavage is 1.25.
Under G15U A35C stands 1.16; under G15U A35G, 0.933; under C16G A26C, 0.388.
Under C16G A26G stands 0.766.
The same measure for C16G C66U: 0.422.
In the case of C16G G19A, the self-cleavage came out at 0.646.
The same measure for C16A G68U: 0.181; for C16A G68C: 0.176.
Under G15C G54A stands 0.532; under G15C G54C, 0.404.
Under G15U G32U stands 0.144; under G15U G32A, 0.0947; under G15C C65G, 0.369.
For the variant G17C A71G, the self-cleavage was determined as 0.694.
Take G17C A71C: the self-cleavage was 1.18.
The same measure for C16U G68A: 0.283.
Under C16G G51A stands 0.798.
The same measure for C16U A47C: 0.567; for C16U A47G: 0.16; for C16U G56A: 0.208.
Take C16U G29C: the self-cleavage turned out to be 0.1.
Take G17A U60C: the self-cleavage turned out to be 1.36.
Under C16U A31G stands 0.742.
The same measure for C16U A31U: 0.211; for C16G U60C: 1.06.
Under C16G U60A stands 0.62; under C16U A39U, 0.312.
Take C16U A39C: the self-cleavage is 0.641.
Under G15C U62G stands 0.134.
With C16G G17A, the self-cleavage is 0.894.
For the variant C16G G17C, the self-cleavage stood at 0.717.
Turning to G17C A45U, the self-cleavage turned out to be 0.12.
Under C16A A30C stands 0.134.
The same measure for C16A A30U: 0.154; for G15U U67A: 0.206; for G15C U67A: 0.112.
As for G15C U67C, the self-cleavage is 0.2.
Under C16G G57C stands 0.108; under C16A G19C, 0.736; under G15C U52G, 0.812.
The same measure for G15U A43C: 0.195; for G15U G56C: 0.195.
For the variant G17C C18U, the self-cleavage worked out at 0.902.
Under G15U U20G stands 0.853; under G15U U20A, 0.941; under G15U U60C, 1.01.
On to C16G U62A, for which the self-cleavage came to 0.168.
Turning to C16G U62G, the self-cleavage was found to be 0.181.
Under G17A A30C stands 0.231; under C16U A45U, 0.128.
Under C16U A45G stands 0.135.
The same measure for C16G A31G: 0.431; for C16U A22G: 1; for C16U A22U: 0.972.
On to C16G A41U, for which the self-cleavage was determined as 1.35.
Take C16G A41G: the self-cleavage was 0.593.
The same measure for C16G A30G: 0.0703; for C16G A30C: 0.177.
The same measure for G17A C48U: 0.176; for C16U A23C: 1.03.
Under C16U A23U stands 0.992.
Consider G15C U55C, for which the self-cleavage came to 0.276.
The same measure for G15C U55A: 0.279; for G15C U55G: 0.487.
The same measure for G15U C65A: 1.15; for C16G G32U: 0.18; for G17C C66U: 0.346.
Under C16A G54A stands 0.388; under G17C C50A, 0.248.
In the case of G17C C50U, the self-cleavage was 0.286.
On to C16U U62G, for which the self-cleavage was 0.107.
Under C16U U62C stands 0.384; under G17C C48A, 0.173.
The same measure for G15U U70C: 0.999.
Take C16G A23C: the self-cleavage was found to be 0.763.
Turning to C16U U60C, the self-cleavage turned out to be 1.26.
Under G15U G42C stands 0.44; under G17C A30G, 0.0659; under G17C A30U, 0.118.
G17C C65G: the self-cleavage worked out at 0.339.
Under G17C C65U stands 0.24.
Under G17A U52A stands 0.912.
Under G17A A64C stands 0.143; under G15U G69U, 0.176; under G15U U55C, 0.306.
For G15U U55G, the self-cleavage is 0.302.
Under G15U G19A stands 0.968; under C16G A36C, 0.399.
Regarding C16G A36G, the self-cleavage came out at 1.06.
The same measure for C16G U55C: 0.239.
Under C16U G27C stands 0.202.
Under G17A C65G stands 0.485; under G17A A61G, 0.107; under C16U U70G, 0.722.
Regarding G15U C18A, the self-cleavage was 1.07.
Under G15U C18U stands 1.03; under C16G U53C, 0.949; under C16U C48G, 0.108.
For the variant C16U C48U, the self-cleavage was 0.179.
Under C16U A28U stands 0.723; under C16U A28G, 1.32; under G17C A31C, 0.172.
The same measure for G17C A31U: 0.0868; for G17A A35G: 1.2; for G17A A35C: 0.945.
As to C16A A71U, the self-cleavage worked out at 0.776.
Turning to G15C C66U, the self-cleavage is 0.555.
Under G15U G54C stands 0.385; under G17C A24C, 0.614.
Under C16U U52G stands 0.761; under C16G A59G, 0.17.
Under G15U C16U stands 0.937; under C16A A22G, 0.617; under G17C G27U, 0.116.
Turning to G17C G27A, the self-cleavage was 0.419.
The same measure for G17C G27C: 0.154; for G15U C38A: 0.124; for G15U C38U: 0.662.
Take C16U A26C: the self-cleavage was 0.839.
Turning to C16G C48A, the self-cleavage came out at 0.0451.
Under C16G C48G stands 0.19; under G17C A41U, 1.27.
On to C16A A49U, for which the self-cleavage was 0.206.
The same measure for C16A A49G: 0.389.
Under C16A G57C stands 0.127.
The same measure for C16G C18A: 1.03.
With G15C G27U, the self-cleavage came to 0.214.
